Laboratory results as given in the DeepSol protein solubility set.

Assay: soluble on expression in E. coli; label from the status in PepcDB or PDB records

Sequence | soluble on expression in E. coli
MSLDINQIALHQLIKRDEQNLELVLRDSLLEPTETVVEMVAELHRVYSAKNKAYGLFSEESELAQTLRLQRQGEEDFLAFSRAATGRLRDELAKYPFADGGFVLFCHYRYLAVEYLLVAVLSNLSSMRVNENLDINPTHYLDINHADIVARIDLTEWETNPESTRYLTFLKGRVGRKVADFFMDFLGASEGLNAKAQNRGLLQAVDDFTAEAQLDKAERQNVRQQVYSYCNEQLQAGEEIELKSLSKELAGVSEVSFTEFAAEKGYELEESFPADRSTLRQLTKFAGSGGGLTINFDAMLLGERIFWDPATDTLTIKGTPPNLRDQLQRRTSGGNLEHHHHHH | not soluble
MGSDKIHHHHHHMKKVLTAALLMTAPFMANAGADFVKGDKTFAGEAELGATLTTGNTDTSSYKGRLNFKHELGDWENQYLLEGLYKEDTGAVTAKRYLAGAQGNYKMNDRSYWFANANYEVDPFTGYDYTLSGATGYGHRLLDTSKTFLDVEIGPGYIYQRLDSEQALLEGTDSNDSVVAHGVINFETEITETSKFQQRFVADYGEKLDARSETSLTANIIGALAMKFAIIVRYNSEPLDDKKSTDTETNMTLLYSF | not soluble
VYRTPRTCSPHFPAGPARVINPGLHELHASAGDERDAPIGINFRSPRMRMAGEFVPDSGACDAAHGGSAAPTRKAGMRIGGAAAGKVE | not soluble
MGSDKIHHHHHHMQQPLAYRMRPRHLDEVVGQQHLVGPGKIIRRMVEAKMLSSMILYGPPGTGKTSIASAIAGSTNYAFRMLNAATDTKKDLQIVAEEAKMSGTVILLLDEIHRLDKTKQDFLLPHLENGRIIMIGATTENPYITINPAIRSRTQIFEVKPLTETDIQQAIQEALTDSTRGLGDYPVHLEEKALQHLTRATNGDLRSALNGLELAVKSTPKNEQGEIKITLPIIEECVQRKALTHVKDGDAHYDVISAFQKSIRGSDVDAALHYLGRLVEAGDLPIICRRLMVIAYEDIGLGNPAAAARTVTAVQAAEKLGFPEARIPLASVVIDLCLSPKSNSAVTAIDAALADIRQGSVGDVPDHLRDAHYAGAKELNRGIGYQYPHNFENGWVNQQYLPDKLKEARYYEPIDIGKYEQALHQQLKRIQEWKQKK | not soluble
GPGSDQLKQSAFLVRNDEKVAALIVLLKRVLHVGEAAANSAQALIFSESKFHVEFLQMILTHYSISTSAVHGQMDQEARRLAVRSFAKRETSVMVVTDVAARGLDLPLLDNVVNFSFPFNPKLFVHRVGRVARAGRSGTAYSIMTFEDFPYYVDLMQFIGRPLQSAPVPGDLLFTPDDGCYGRLPEEDIQLELDFLKRLH | not soluble
MAHHHHHHMSAGSDARIYRCTFIKKEAVKKVIYRKYYRHKKIDTKIRKLRVSNEIKFTKKLASLNIDVPYIYFVDAKEKSLYFEYVKGCTINFILKNLKEYEPKIPICVGMVLAKIHNGNIIHGDYTTSNLILRNSFIQQNNLLDLKNNNSPYNFSDLENVKLCVIDFGLSFLSSSIEDKAVDLFVLLKTIKSFHSEFPSLEEDILEGYKMKSDNVNDIFTKLEIVKQRGRKRPMVG | not soluble
GSHMPSRRMLHTMIRVGDLDRSIKFYTERLGMKVLRKWDVPEDKYTLVFLGYGPEMSSTVLELTYNYGVTSYKHDEAYGHIAIGVEDVKELVADMRKHDVPIDYEDESGFMAFVVDPDGYYIELLNEKTMMEKAEADMKEQGTA | soluble
MKLERILPFSKTLIKQHITPESIVVDATCGNGNDTLFLAEQVPEGHVYGFDIQDLALENTRDKVKDFNHVSLIKDGHENIEHHINDAHKGHIDAAIFNLGYLPKGDKSIVTKPDTTIQAINSLLSLMSIEGIIVLVIYHGHSEGQIEKHALLDYLSTLDQKHAQVLQYQFLNQRNHAPFICAIEKIS | not soluble
MSLAAVFPLADFRRAGFDRAGESDAWKDSIIKGDCVAALDALPSQSVDAIFADPPYNLQLGGTLHRPDQSLVDAVDDEWDQFASFDAYDAFTRAWLLACRRVLKPNGTIWVIGSYHNIFRVGAMLQNLDFWILNDIVWRKTNPMPNFKGRRFQNAHETMIWASRDPKAKSYTFNYDALKASNDDVQMRSDWLFPICSGHERLKGDDGKKVHPTQKPEALLARIIMASTKPGDIVLDPFFGSGTTGAVAKRLGRHFVGIEREQDYIDAASARITAVEPLGKAELTVMTGKKAEPRVAFNTLVESGLVRPGQVLTDARRRYSAIIRADGTLASGGTAGSIHRLGAKVQGLDACNGWTFWHFEDGDALKPIDDLRTIIRSEMAKAEGHHHHHH | soluble
MGSDKIHHHHHHMTGRRIAIAIDSLAGGGAEKVMLTLASTLVELGHEPHLLVLQQDCHHEIPPGLQVHFCFGGDERNIDGFWRTRGSVQKLQQWITGLEERFGKFELFLSNLDKTNLLMTRTGVAPLYCVVHNSIEEELQRQRKLGPFAYLSMLRAKKSLNGQHLITVSKGIANEIAEVGRVQPASVQTIYNPFELEKIQHQASQTADALPKGDYIIHVGRFARQKRHDVLFAALKQMRNPLPLVLLCNNKKKAIKSARKFGVEDRVIIPGFQTNPYPWIKGARLLALSSDYEGLPTVLIESLAVGTPVVSTDCRHGPKEILTGALRRFLVPRRDPAALAMAMDEALTHYPDCDDAEILTQVGAAAVAGKYLKLLTA | not soluble
MSLNRIILLDRDGVINTDSINYIKNVDELIIIPDSIIAIARLSAAGYKIGVATNQSGVSRGLYSEDDLSAIHCKLREVLAEAGGQIDALEYCIHLPEDNCFCRKPQPGMLKALAEKLNCSLDSVPFVGDRVSDIQAALAVGAQPIIVLSNMTDMSELAQYPKVPIYNSLLQYVNQLLLEGHHHHHH | soluble
MKRTGILLVNLGTPKDSSKTEVRKYLKTFLSDRRVIKIHPIIWKPILNGIILNIRPKKSAKLYQKICTENGFPLLEYTEKQMENLKNICPEVEVTIGMSYSEPSIETALDTLLSKEIEELNVIPMYPQYSGTTVGSVFDSVMNYFIKSDRIVDIKFIRSFYNNPQYIDYFSKKINEALNESPIDAIVFSYHGIPMSYVKDGDNYPKECTK | not soluble
MGSDKIHHHHHHMKLVFRWYGEKHDTVTLEQIRQIPGVEGVVGALFDIPVGEVWPFEEIMKLKETVEKAGLKLEVIESVNVHEDIKLGLPTRDRYIENYKKTIRNLAKAGVKVVCYNFMPVFDWMRTDLHKKLPDGSETMEYDHRLIEGVTPDELIKRVKEGSQGFVLPGWEWDRLEKLRETFELYKNVDEEKLFENLVYFLERVIPVCEECDVKLAIHPDDPPWSIFGLPRIITNKENIERMLKAVDSPYNGITFCMGSLGANPENNIPEMIRYFGKMGRIHFAHVRNLKFTGEKSFYETAHPSFCGSHDLFEVMKAFHDIGYEGYIRPDHGRLIWGEKARPGYGLYDRALGATYILGLWEAIDKMKKRYC | not soluble
GSHMNGEPDIAQLKGLSPSQRQAYAVQLKNRGNHFFTAKNFNEAIKYYQYAIELDPNEPVFYSNISACYISTGDLEKVIEFTTKALEIKPDHSKALLRRASANESLGNFTDAMFDLSVLSLNGDFDGASIEPMLERNLNKQAMKVLNENLSKDEGRGSQVLPSNTSLASFFGIFDSHLEVSSVNTSSNYDTAYALLSDALQRLYSATDEGYLVANDLLTKSTDMYHSLLSANTVDDPLRENAALALCYTGIFHFLKNNLLDAQVLLQESINLHPTPNSYIFLALTLADKENSQEFFKFFQKAVDLNPEYPPTYYHRGQMYFILQDYKNAKEDFQKAQSLNPENVYPYIQLACLLYKQGKFTESEAFFNETKLKFPTLPEVPTFFAEILTDRGDFDTAIKQYDIAKRLEEVQEKIHVGIGPLIGKATILARQSSQDPTQLDEEKFNAAIKLLTKACELDPRSEQAKIGLAQLKLQMEKIDEAIELFEDSAILARTMDEKLQATTFAEAAKIQKRLRADPIISAKMELTLARYRAKGML | soluble
MSLESYVPNNEAKFPENISYGSMGGPTFSTVISELGGGKEQRKVNWTHSRNRYNVAYNTASSDQCSALISFFYAHRGKALPFRFKDWSDYTATGQNIGVGDGKSLNFQLVKRYHAGQYSYVRKISRPVVGTVKMSLGEVSQEYERDYSVDYNSGVVTFAVPPAHNATIHADFEFDVLVRFDTDFLAFAMEAHGNYGCHGVSLVEVSEEGHHHHHH | soluble
MGRLFVVNLEGKIYSCKHCKTHLATYEDIISKSFHCKHGKAYLFNKVANVSIGETEERLMMTGKHTVADIFCVSCGSIVGWKYETAHEKNQKYKEGKSVLERFKISGPDGSNYWVSSHGRHIGGSDADDA | soluble
MGSDKIHHHHHHVASQTPGTEAQSQTVQPGRIAAISLHTSPLDQPGTGDAGGMNVYIVEVAKRLAERGIAVDIFTRATSFEQPPEVELAPGVTVRNIAAGPYGTLDKTALINYLCPFVHGMLRAEAEHLGGSYDLVHTHYWLSGQAGWPVAREWGVPLVHSMHTMARVKNMSLAEGDTPEPEERVRGEDALVALADRLIANTDDEAAQLINYYGASPSRVSTVFPGVDLTTFTPGSRAESLRRLGLPEDTILLLFVGRVQRLKAPDVLLRAAARLLELNPSLRDRLVVAVVGGQSGTGYREPWLLSDLADSLGIADLVRLEPPCPRAELVHYYRAATVTVVPSHSESFGLVAVESQACGTPVVAARVGGLPTAVRDGVSGVLIDGHDPHDYANVLHRMITEPRWRERMGAAGIHHASGLSWESTVDGLLAAYRDALHQCRLTVPCR | not soluble
MKIAVLGATGRAGSAIVAEARRRGHEVLAVVRDPQKAADRLGATVATLVKEPLVLTEADLDSVDAVVDALSVPWGSGRGYLHLDFATHLVSLLRNSDTLAVFILGSASLAMPGADHPMILDFPESAASQPWYDGALYQYYEYQFLQMNANVNWIGISPSEAFPSGPATSYVAGKDTLLVGEDGQSHITTGNMALAILDQLEHPTAIRDRIVVRDADLEHHHHHH | soluble
MGHHHHHHSHMCPRCGKQFNHSSNLNRHMNVHRGVKSHSCGICGKCFTQKSTLHDHLNLHSGARPYRCSYCD | soluble
MTNKEIKKLCRSFGADLVGVASVERFVNAPKGYHPTDVMPTAKSVISLGMVLPKDILEQDIRTYTDIRNEAVKKMDKVAADVAAELKGLKYKAVSIVSLSGKFVDGHFRSRVSLKHAAELAGLGVIARNYLLTNDKYGNLLWFTAVVTSLELEPDPLATYQVCNNCNLCVDLCPSGALTDENNFSQKGCRKVCYITVKGVLELRCWQCRNVCPYKHGIND | not soluble
MAYDIFLKIDGIDGESMDDKHKNEIEVLSWRWNIHQESTMHAGSGLGSGKVSVTNLDFDHYIDRASPNLFKYCASGKHIPQAILVMRKAGGNPLEYLKYTFTDLIVAVVSPSGSHDGEIASRETVELSFSTVKQEYVVQNQQGGSGGTITAGYDFKANKEI | not soluble
MKLKLFFHIVLLCFSLPIWAMKTVDVTASPKMDDQARMNLAQEFANKQQWIDVFNIMYPMALEGNITAQSNLGMLYNLGRGTVRDYEKAYWWFSEAAEKGSVKGLNNLGVMYLRGDYVKQNTEQAIKLFERTAQAKDTDAMMMLSNIYRLQNQPEKIIGMAEESRLEHHHHHH | not soluble
MQQLKAKSLEMRTPQATKTAVLVIGGAEDKVHGREILRTFVARAGASKAYITIIPSASREPAIIGGRYIRIFEEMGAEKVEILDIREREQCDSSQIKASLEACTGVFLTGGDQLRLCGVLSDTAAMDIIRQRVRAGQLTLAGTSAGAAVMGHHMIAGGGSGETPNRSLVDMATGLGFIPEVIVDQHFHNRNRMGRLVSAIAAHPDRLGIGIDEDTCAVFERDGWLQVMGKGSVTIVDPTELTHTNEPLVSANEPLTVHNLRLHILSYGDRFHLYQRTVLPAVHRISS | soluble
MAIISSLANHLLIAMPSLKDPNFERSVVYLCEHNEQGSVGLIINRPLQFPLSIVFEQLQIEPIRVEKNGLPLLFGGPVQPERGFVIHKQMGGWRSSLFLQDEVTVTTSNDIIRAIAYDEGPKDVLITLGYAAWTEQQLEREIMSNTWLVCPYKSEILYEVPFEERWEYAGLTLGIKMNQLSSDAGHALEHHHHHH | not soluble
